{
  "source": "patent US6953577B2",
  "about": "“Human methionine aminopeptidase type 3” (Pharmacia Corporation, priority 1999, dated 2005)",
  "tested_on": "CSCC[C@H](N)C(=O)N[C@@H](C)C(=O)N[C@@H](CO)C(=O)O",
  "assay": "purified protein, by the assay type",
  "settings": "other: hydrolysis of methionine from MAS peptide substrate; pH 7.5",
  "description": "Hydrogen peroxide, produced by the L-amino acid oxidase reaction, was measured by monitoring the formation of resorufin from Amplex Red in a reaction catalyzed by of horseradish peroxidase. […] The reaction was performed in a 96-well plate format at ambient temperature using the following assay buffer: 20 mM HEPES-Na pH 7.5, 100 mM NaCl, 0.1 mM CoCl2 containing 100 μM Amplex Red, 0.15 U/ml L-amino acid oxidase, 0.5 U/ml horseradish peroxidase.\nThe IC50 values were determined under conditions in which enzyme concentration and reaction time were linear.",
  "data": [
    {"substance": "recombinant human MetAP-1 (Homo sapiens)", "values": [
      {"measurement": "Km", "value": 8.5, "unit": "mM"},
      {"measurement": "kcat", "value": 0.75, "unit": "s⁻¹"}
    ]}
  ]
}
